T1: recombinant human IL-12 (hrIL-12), produced at Centocor (human, UniProt P29459 23-219; P29460 23-328)
T1 construct: p35-p40 heterodimer; also called hIL-12; IL-12 CNTO
T1 sequence (looked up) 1: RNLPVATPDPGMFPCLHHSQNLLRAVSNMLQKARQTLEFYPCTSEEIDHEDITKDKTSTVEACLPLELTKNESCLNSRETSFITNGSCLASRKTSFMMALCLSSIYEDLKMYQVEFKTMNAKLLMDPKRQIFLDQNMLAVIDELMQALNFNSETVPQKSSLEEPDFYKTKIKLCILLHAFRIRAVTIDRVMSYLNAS
T1 sequence (looked up) 2: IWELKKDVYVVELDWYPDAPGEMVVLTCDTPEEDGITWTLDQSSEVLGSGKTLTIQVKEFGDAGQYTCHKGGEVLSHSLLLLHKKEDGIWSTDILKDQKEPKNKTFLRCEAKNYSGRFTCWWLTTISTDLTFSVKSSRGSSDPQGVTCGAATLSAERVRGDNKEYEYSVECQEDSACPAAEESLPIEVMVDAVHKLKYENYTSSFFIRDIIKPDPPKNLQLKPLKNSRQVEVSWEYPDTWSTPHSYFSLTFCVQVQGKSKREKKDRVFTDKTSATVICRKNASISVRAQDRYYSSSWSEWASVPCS

T2: IL-12 (R&D) (UniProt P29459 23-219; P29460 23-328)
T2 construct: bought from R&D Systems; also called R&D IL-12
T2 sequence (looked up) 1: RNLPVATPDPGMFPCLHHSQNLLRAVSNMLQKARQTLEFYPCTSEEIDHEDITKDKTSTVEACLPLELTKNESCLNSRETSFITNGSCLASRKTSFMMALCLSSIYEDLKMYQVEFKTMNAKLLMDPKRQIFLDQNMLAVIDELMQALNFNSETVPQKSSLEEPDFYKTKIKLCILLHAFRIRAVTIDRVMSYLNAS
T2 sequence (looked up) 2: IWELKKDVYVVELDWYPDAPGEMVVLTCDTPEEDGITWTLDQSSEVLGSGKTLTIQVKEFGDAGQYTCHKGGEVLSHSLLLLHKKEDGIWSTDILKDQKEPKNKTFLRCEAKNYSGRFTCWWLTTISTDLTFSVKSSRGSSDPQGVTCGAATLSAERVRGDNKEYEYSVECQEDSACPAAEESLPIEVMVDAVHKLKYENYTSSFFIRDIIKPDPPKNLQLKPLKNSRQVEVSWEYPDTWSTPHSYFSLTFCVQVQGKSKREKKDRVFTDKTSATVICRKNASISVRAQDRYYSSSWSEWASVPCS

T3: recombinant human IL-23 (hrIL-23), produced at Centocor (human, UniProt P29460 23-328)
T3 construct: p19-p40 heterodimer; also called rhIL-23; hIL-23
T3 sequence 1: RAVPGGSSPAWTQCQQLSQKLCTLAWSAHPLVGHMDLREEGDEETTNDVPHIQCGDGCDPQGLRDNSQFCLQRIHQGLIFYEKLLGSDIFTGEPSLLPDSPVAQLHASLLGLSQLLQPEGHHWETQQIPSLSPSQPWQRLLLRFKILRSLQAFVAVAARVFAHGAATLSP
T3 sequence 2: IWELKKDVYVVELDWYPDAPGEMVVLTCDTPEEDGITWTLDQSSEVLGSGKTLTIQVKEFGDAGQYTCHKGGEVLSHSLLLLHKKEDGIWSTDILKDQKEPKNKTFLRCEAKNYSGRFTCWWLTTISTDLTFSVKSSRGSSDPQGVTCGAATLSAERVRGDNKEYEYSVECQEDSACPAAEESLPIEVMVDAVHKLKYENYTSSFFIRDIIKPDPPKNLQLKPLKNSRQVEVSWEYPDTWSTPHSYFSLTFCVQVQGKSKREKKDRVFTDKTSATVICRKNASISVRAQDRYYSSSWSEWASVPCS


Assays:
[1] = molecular target: T1, recombinant human IL-12 (hrIL-12), …; assay: ELISA, antigen in solution to immobilized Fab
[2] = molecular target: T2, IL-12 (R&D); assay: ELISA, antigen in solution to immobilized Fab
[3] = molecular target: T3, recombinant human IL-23 (hrIL-23), …; assay: IL-23/IL-23R competition assay

Row | binding result [1] | binding result [2] | IC50 [3] [nM] | Binder
1 | no binding | no binding |  | Fab MOR04649 (Fab, V domains shown, HuCAL Gold Fab, lambda) VH: QVQLVQSGAEVKKPGESLKISCKGSGYSFSNYWIGWVRQMPGKGLEWMGIIDPSNSYTNYSPSFQGQVTISADKSISTAYLQWSSLKASDTAMYYCARWYYKPFDVWGQGTLVTVSS VL: DIVLTQPPSVSGAPGQRVTISCTGSSSNIGSGYDVHWYQQLPGTAPKLLIYGNSKRPSGVPDRFSGSKSGTSASLAITGLQSEDEADYYCSSWTPSSVVFGGGTKLTVL
2 |  |  | 0.03 | Fab MOR05046 (Fab, V domains shown, H-CDR2 matured from 4649) VH: QVQLVQSGAEVKKPGESLKISCKGSGYSFSNYWIGWVRQMPGKGLEWMGIIDPVSSWTKYSPSFQGQVTISADKSISTAYLQWSSLKASDTAMYYCARWYYKPFDVWGQGTLVTVSS VL: DIVLTQPPSVSGAPGQRVTISCTGSSSNIGSGYDVHWYQQLPGTAPKLLIYGNSKRPSGVPDRFSGSKSGTSASLAITGLQSEDEADYYCSSWTPSSVVFGGGTKLTVL
3 | no binding | no binding |  | Fab MOR04658 (Fab, V domains shown, HuCAL Gold Fab, lambda) VH: QVQLVESGGGLVQPGGSLRLSCAASGFTFSSFGMSWVRQAPGKGLEWVSNISSSGSSTYYADSVKGRFTISRDNSKNTLYLQMNSLRAEDTAVYYCARYWGTPYLMQFDNWGQGTLVTVSS VL: DIALTQPASVSGSPGQSITISCTGTSSDVGGYNSVSWYQQHPGKAPKLMIYSVSSRPSGVSNRFSGSKSGNTASLTISGLQAEDEADYYCSSYDTNKPLVVFGGGTKLTVL

Source: US20070218064A1 (published 2007)
